Measurements taken from patent US20050142568A1 (published 2005).

Experiments:
GST-CRN-3 = molecular target: T1, GST-CRN-3 (C. elegans, UniProt G5EBX6 1-876); assay: GST pull-down, 35S-Met protein vs GST fusion; - means no detectable binding (footnote a)
T1 construct: also called CRN-3 GST-fusion protein; not shown: glutathione S-transferase tag encoded by vector pGEX4T-2
T1 sequence: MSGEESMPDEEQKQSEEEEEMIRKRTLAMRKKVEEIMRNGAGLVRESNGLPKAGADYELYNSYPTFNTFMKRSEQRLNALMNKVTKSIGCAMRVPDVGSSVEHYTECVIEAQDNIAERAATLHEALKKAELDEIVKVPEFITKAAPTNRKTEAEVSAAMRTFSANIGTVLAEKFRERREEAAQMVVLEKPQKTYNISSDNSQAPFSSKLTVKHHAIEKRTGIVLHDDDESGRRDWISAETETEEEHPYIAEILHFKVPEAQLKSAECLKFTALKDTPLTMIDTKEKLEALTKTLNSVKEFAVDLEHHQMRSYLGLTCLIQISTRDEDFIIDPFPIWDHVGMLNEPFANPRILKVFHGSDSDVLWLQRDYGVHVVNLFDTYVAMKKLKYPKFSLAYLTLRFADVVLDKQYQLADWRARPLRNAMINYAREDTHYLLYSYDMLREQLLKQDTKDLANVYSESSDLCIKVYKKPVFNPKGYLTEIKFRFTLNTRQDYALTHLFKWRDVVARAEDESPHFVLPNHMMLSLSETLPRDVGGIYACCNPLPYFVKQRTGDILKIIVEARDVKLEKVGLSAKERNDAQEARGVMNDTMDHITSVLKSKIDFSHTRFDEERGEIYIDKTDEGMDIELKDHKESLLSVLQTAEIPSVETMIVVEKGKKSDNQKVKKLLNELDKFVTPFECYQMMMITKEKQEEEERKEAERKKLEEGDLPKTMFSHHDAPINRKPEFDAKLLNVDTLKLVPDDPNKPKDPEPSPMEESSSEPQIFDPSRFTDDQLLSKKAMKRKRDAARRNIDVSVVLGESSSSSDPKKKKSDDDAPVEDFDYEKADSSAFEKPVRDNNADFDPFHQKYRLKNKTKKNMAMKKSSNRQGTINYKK
How it was run: (§1)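 GST alone or GST fusions (5 μg) on glutathione beads incubated 2 hours at 4° C. with in vitro translated ³⁵S-Met-labeled proteins; bound protein by 12% SDS-PAGE and autoradiography. Scored against background binding of ³⁵S-luciferase to GST fusions and of labeled proteins to GST.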

[1] = molecular target: T2, GST (glutathione-S transferase alone) (UniProt P08515 1-218 = GST); assay: as above
T2 construct: Purified GST used as negative control bait on glutathione sepharose beads; also called OST
How it was run: as §1

T2 sequence (P08515 whole entry): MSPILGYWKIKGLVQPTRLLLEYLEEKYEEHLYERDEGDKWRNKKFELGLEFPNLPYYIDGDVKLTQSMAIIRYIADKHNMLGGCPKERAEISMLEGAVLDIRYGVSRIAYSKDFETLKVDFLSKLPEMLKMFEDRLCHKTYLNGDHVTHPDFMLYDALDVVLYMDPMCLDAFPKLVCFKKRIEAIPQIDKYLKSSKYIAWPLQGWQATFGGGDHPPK

B1: ^35S-Methionine labeled CRN-2 (enzyme, C. elegans)
chain: MALYELVDIGANLGHPSYQKDLNDVLDRAKQAGLSKIMVTGTSEKISHECADLVEKYPGFLYFTAGVHPHDAKDWNDGTLEALKKLQENPSCVAVGECGLDFNRNFSPQDVQKEVFAKQVDMAVKLQKPLFIHEREAHEDMVKILTAAGPSLPPAVIHCFTGTVVEAKKYLEMGFYIGLTGFLWKDRSDNGVQAGLRSGEIPIEKLVLETDAPYMYPKINDKKIPKEIKSLITPETEALHNFSSFNRNEPCSLAAVCELVAAFAGRDPKEVAKITTENAKKVYKLE
B1: no binding (GST-CRN-3); no binding [1].
